Experimental data as given in patent US20240226314A1 (Sanofi, published 2024).
Like-named read-outs stand apart in the source and are kept apart here.

B1: His-tagged cynomolgus monkey TfR ectodomain (cyTFRC_89_760; mature protein) (receptor)
chain: CKGVEPKTECERLAGTESPAREEPEEDFPAAPRLYWDDLKRKLSEKLDTTDFTSTIKLLNENLYVPREAGSQKDENLALYIENQFREFKLSKVWRDQHFVKIQVKDSAQNSVIIVDKNGGLVYLVENPGGYVAYSKAATVTGKLVHANFGTKKDFEDLDSPVNGSIVIVRAGKITFAEKVANAESLNAIGVLIYMDQTKFPIVKADLSFFGHAHLGTGDPYTPGFPSFNHTQFPPSQSSGLPNIPVQTISRAAAEKLFGNMEGDCPSDWKTDSTCKMVTSENKSVKLTVSNVLKETKILNIFGVIKGFVEPDHYVVVGAQRDAWGPGAAKSSVGTALLLKLAQMFSDMVLKDGFQPSRSIIFASWSAGDFGSVGATEWLEGYLSSLHLKAFTYINLDKAVLGTSNFKVSASPLLYTLIEKTMQDVKHPVTGRSLYQDSNWASKVEKLTLDNAAFPFLAYSGIPAVSFCFCEDTDYPYLGTTMDTYKELVERIPELNKVARAAAEVAGQFVIKLTHDTELNLDYERYNSQLLLFLRDLNQYRADVKEMGLSLQWLYSARGDFFRATSRLTTDFRNAEKRDKFVMKKLNDRVMRVEYYFLSPYVSPKESPFRHVFWGSGSHTLSALLESLKLRRQNNSAFNETLFRNQLALATWTIQGAANALSGDVWDIDNEF
notes: also called cTfR; cTfR ectodomain
B3: cTfR expressed on 300.19 cells (SEQ ID NO: 2) (receptor)
chain: MMDQARSAFSNLFGGEPLSYTRFSLARQVDGDNSHVEMKLGVDEEENTDNNTKANGTKPKRCGGNICYGTIAVIIFFLIGFMIGYLGYCKGVEPKTECERLAGTESPAREEPEEDFPAAPRLYWDDLKRKLSEKLDTTDFTSTIKLLNENLYVPREAGSQKDENLALYIENQFREFKLSKVWRDQHFVKIQVKDSAQNSVIIVDKNGGLVYLVENPGGYVAYSKAATVTGKLVHANFGTKKDFEDLDSPVNGSIVIVRAGKITFAEKVANAESLNAIGVLIYMDQTKFPIVKADLSFFGHAHLGTGDPYTPGFPSFNHTQFPPSQSSGLPNIPVQTISRAAAEKLFGNMEGDCPSDWKTDSTCKMVTSENKSVKLTVSNVLKETKILNIFGVIKGFVEPDHYVVVGAQRDAWGPGAAKSSVGTALLLKLAQMFSDMVLKDGFQPSRSIIFASWSAGDFGSVGATEWLEGYLSSLHLKAFTYINLDKAVLGTSNFKVSASPLLYTLIEKTMQDVKHPVTGRSLYQDSNWASKVEKLTLDNAAFPFLAYSGIPAVSFCFCEDTDYPYLGTTMDTYKELVERIPELNKVARAAAEVAGQFVIKLTHDTELNLDYERYNSQLLLFLRDLNQYRADVKEMGLSLQWLYSARGDFFRATSRLTTDFRNAEKRDKFVMKKLNDRVMRVEYYFLSPYVSPKESPFRHVFWGSGSHTLSALLESLKLRRQNNSAFNETLFRNQLALATWTIQGAANALSGDVWDIDNEF
notes: Murine pre-B cell line 300.19, stably transfected with a plasmid expressing cTfR; also called cynomolgus TfR; cTfR-expressing 300.19 cells

Key:
[1] = molecular target: T1, anti-TfR 531v25-Fab-FcOL-GAA; assay: SPR, His-tagged TfR ectodomain captured on anti-His, 1:1 fit
T1 construct: Monovalent Fab-FcOL with GAA fused to the C-terminus of the Fc polypeptide
Method: (§1) Binding of the humanized Fab variants to human, cynomolgus and mouse TfR was assessed using SPR at pH 7.4. Experiments were run on a Bruker MASS-2 instrument with HBS-EP+ as running buffer and sample diluent (Cytiva Life Sciences, #BR100826). HCA sensor chips (Bruker, #1862614) were immobilized with anti-His antibody (His capture kit, Cytiva Life Sciences, #28995056) following manufacturer's instructions. About 10,000 RU of anti-His was obtained. His-tagged hTfR ectodomain (SEQ ID NO: 39), cTfR ectodomain (SEQ ID NO: 40) or mouse TfR ectodomain (SEQ ID NO: 41) (5 μg/ml) was captured for 1 min at 10 μL/min. Concentration series of the humanized Fab variants were then injected for 4 min at 30 μL/min over hTfR surfaces and dissociation was monitored for 5 min. Surface was regenerated with one 1 min pulse of 10 mM glycine-HCl at pH 1.5.
(§2) Affinity by SPR was also measured for the 531v25-mAb-GAAx2 molecule (a GAA sequence fused to both HCs).

[2] = molecular target: T2, anti-TfR 531v25-Fab-FcOL-LC-GAA (Homo sapiens (Human), UniProt P0DOX5 223-448 = IgG part); assay: as above
T2 construct: Monovalent Fab-FcOL with GAA fused to the C-terminus of the light chain
Method: as §1, §2

[3] = molecular target: B1; assay: SPR; KD on cTfR against KD on hTfR
Method: as §1

[4] = molecular target: B1; assay: SPR; KD on cTfR against KD on hTfR
Method: as §1

[5] = molecular target: His-tagged mouse TfR ectodomain (mTFRC_89_764; mature protein) (mouse, UniProt Q62351 89-763); assay: SPR, His-tagged mTfR ectodomain captured on anti-His
Method: as §1

[6] = molecular target: T3, His-tagged human TfR ectodomain (hTFRC_89-760_G142S; mature protein) (human, UniProt P02786 89-760); assay: SPR, His-tagged TfR ectodomain captured on anti-His, 1:1 fit
T3 construct: It carries the G142S haplotype; also called hTfR ectodomain
Method: as §1

[7] = molecular target: B1; assay: as above
Method: as §1

[8] = molecular target: T3, His-tagged human TfR ectodomain …; assay: as above; remark: listed apart in the source
Method: as §1

[9] = molecular target: B1; assay: as above
Method: as §1

[10] = molecular target: T1, anti-TfR 531v25-Fab-FcOL-GAA; assay: flow cytometry on TfR-expressing 300.19 cells
[11] = molecular target: T2, anti-TfR 531v25-Fab-FcOL-LC-GAA; assay: flow cytometry on TfR-expressing 300.19 cells
[12] = molecular target: B3; assay: flow cytometry on cTfR-expressing 300.19 cells
Method: (§3) The binding kinetics of the four anti-TfR-GAA molecules to hTfR-expressing 300.19 cells and cTfR-expressing 300.19 cells were determined by flow cytometry. 300.19 is a murine pre-B cell line, originating from a lymphoma, and was stably transfected by nucleoporation with a plasmid expressing either hTfR or cTfR (SEQ ID NO: 1 and SEQ ID NO: 2, respectively).
(§4) 300.19 TFRC-expressing cells were coated at 5×10⁵ cells/well on 96-well High Bind plate (MSD L15XB-3) and 100 μL/well of anti-TfR-GAA molecule were added and incubated for 45 min at 4° C. and washed three times with PBS 1% BSA. […] Antibody binding was evaluated after centrifugation and resuspension of cells by adding 200 μl/well PBS 1% BSA and read using Guava® easyCyte™ 8HT Flow Cytometry System.

[13] = molecular target: T4, hTfR expressed on 300.19 cells (SEQ ID NO: 1) (human, UniProt P02786 1-760); assay: flow cytometry on hTfR-expressing 300.19 cells
T4 construct: Murine pre-B cell line 300.19, stably transfected with a plasmid expressing hTfR; also called human TfR; hTfR-expressing 300.19 cells
Method: as §3, §4

[14] = molecular target: B3; assay: flow cytometry; EC50 on cTfR cells against EC50 on hTfR cells
Method: as §3, §4

T1 sequence (chain, as listed by the source): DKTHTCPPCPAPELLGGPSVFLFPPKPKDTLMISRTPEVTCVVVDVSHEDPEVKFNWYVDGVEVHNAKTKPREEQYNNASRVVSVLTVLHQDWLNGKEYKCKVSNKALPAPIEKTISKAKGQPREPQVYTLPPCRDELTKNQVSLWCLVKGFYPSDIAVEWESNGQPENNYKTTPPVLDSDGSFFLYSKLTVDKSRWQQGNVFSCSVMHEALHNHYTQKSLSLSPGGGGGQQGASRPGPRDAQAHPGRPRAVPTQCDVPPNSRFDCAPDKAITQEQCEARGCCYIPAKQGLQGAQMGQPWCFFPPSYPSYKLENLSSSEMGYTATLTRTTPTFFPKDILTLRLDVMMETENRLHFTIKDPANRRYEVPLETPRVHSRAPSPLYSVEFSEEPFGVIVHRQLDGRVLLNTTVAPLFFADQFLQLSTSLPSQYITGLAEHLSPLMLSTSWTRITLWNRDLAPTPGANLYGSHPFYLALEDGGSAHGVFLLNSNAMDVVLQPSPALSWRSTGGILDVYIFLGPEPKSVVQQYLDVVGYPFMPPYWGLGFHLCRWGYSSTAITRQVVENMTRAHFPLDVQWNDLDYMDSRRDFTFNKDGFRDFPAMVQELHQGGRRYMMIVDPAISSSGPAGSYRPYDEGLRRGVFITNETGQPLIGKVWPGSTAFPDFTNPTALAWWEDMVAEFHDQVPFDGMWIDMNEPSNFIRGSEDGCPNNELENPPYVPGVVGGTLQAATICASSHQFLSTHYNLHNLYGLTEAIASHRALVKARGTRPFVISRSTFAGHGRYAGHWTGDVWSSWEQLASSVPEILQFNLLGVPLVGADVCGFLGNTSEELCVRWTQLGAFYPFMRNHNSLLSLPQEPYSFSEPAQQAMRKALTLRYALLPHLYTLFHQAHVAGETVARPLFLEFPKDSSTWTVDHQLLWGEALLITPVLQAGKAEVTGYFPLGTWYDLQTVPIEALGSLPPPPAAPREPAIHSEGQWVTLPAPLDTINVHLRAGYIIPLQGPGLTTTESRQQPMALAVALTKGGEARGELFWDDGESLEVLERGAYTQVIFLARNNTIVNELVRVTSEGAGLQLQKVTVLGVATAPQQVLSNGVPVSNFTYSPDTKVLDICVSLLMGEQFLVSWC
Chain of His-tagged mouse TfR ectodomain (mTFRC_89_764; mature protein) (Q62351 other isoform, or with tags, fused parts or gaps): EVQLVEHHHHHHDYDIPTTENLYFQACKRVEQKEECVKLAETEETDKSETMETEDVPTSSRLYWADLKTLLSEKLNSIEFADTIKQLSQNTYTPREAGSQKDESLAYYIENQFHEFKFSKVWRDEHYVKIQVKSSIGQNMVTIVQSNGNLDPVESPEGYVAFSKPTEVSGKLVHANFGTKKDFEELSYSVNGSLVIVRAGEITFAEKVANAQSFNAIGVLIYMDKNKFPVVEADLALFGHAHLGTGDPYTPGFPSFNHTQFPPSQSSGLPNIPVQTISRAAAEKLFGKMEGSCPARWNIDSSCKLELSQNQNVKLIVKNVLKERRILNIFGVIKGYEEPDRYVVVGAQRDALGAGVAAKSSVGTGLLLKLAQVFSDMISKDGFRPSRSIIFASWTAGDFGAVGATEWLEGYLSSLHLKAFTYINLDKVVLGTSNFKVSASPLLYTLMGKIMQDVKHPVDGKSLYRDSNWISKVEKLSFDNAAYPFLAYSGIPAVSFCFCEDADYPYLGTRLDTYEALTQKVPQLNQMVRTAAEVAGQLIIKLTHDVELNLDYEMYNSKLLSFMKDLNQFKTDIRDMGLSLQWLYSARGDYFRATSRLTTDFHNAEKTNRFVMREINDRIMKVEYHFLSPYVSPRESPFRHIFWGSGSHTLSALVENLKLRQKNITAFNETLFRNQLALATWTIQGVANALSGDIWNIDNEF

B1
Kd [1]: 89 nM | Kd [2]: 154 nM

B2: 531v25 Fab (Fab, V domains shown)
VH: QVQLVQSGAEVKKPGASVKVSCKASGYTFTRYYLNWVRQAPGQGLEWIGMIDPSVSETHYAQKFQGRATLTVDKSTSTAYMELSSLRSEDTAVYYCSQIRLPYYYAMDSWGQGTTVTVSS
VL: DIQMTQSPSSLSASVGDRVTITCRASQDISSFLNWYQQKPGKAPKLLIYYTSRLQSGVPSRFSGSGSGTDYTLTISSLQPEDFATYYCQQGNTLPRTFGGGTKVEIKR
notes: The His-tag was removed with TEV protease before SPR
Cynomolgus/human KD ratio [3]: 12.5 | Cynomolgus/human KD ratio [4]: 12.4 | binding result [5]: no binding | Kd [6]: 4.45 nM | Kd [7]: 55.8 nM | Kd [8]: 4.5 nM | Kd [9]: 55.8 nM

B3
binding result [10]: binds | binding result [11]: binds

B4: anti-TfR 531v25mAb-GAA (antibody, human IgG1, kappa)
heavy 1: QVQLVQSGAEVKKPGASVKVSCKASGYTFTRYYLNWVRQAPGQGLEWIGMIDPSVSETHYAQKFQGRATLTVDKSTSTAYMELSSLRSEDTAVYYCSQIRLPYYYAMDSWGQGTTVTVSSASTKGPSVFPLAPSSKSTSGGTAALGCLVKDYFPEPVTVSWNSGALTSGVHTFPAVLQSSGLYSLSSVVTVPSSSLGTQTYICNVNHKPSNTKVDKKVEPKSCDKTHTCPPCPAPELLGGPSVFLFPPKPKDTLMISRTPEVTCVVVDVSHEDPEVKFNWYVDGVEVHNAKTKPREEQYNNASRVVSVLTVLHQDWLNGKEYKCKVSNKALPAPIEKTISKAKGQPREPQVCTLPPSRDELTKNQVSLSCAVKGFYPSDIAVEWESNGQPENNYKTTPPVLDSDGSFFLVSKLTVDKSRWQQGNVFSCSVMHEALHNRFTQKSLSLSPG
heavy 2: not shown
light: not shown
EC50 [12]: 2.6 nM | EC50 [13]: 2.7 nM | Cynomolgus/human ratio (TfR) [14]: 1
